This is an account of results in doi:10.1101/2022.08.14.503930 (bioRxiv, 2022).

This assay addresses T1, GFP-TBK1 (UniProt Q9UHD2 1-729).
T1 construct: TBK1, insect codon optimized gene from GenScript; source: Sf9, purified (Glutathione Sepharose, TEV cleavage, Superdex 200)
Briefly: microscopy-based bead protein-protein interaction assay; GST-4xUb (10 uM) on Glutathione Sepharose beads with OPTN S177D S473D 500 nM, GFP-TBK1 500 nM and PI3Kc1-mCh 200 nM; 25 mM TRIS-Cl pH 7.5, 150 mM NaCl, 1 mM DTT; 30 min, confocal. The following applies: both partners purified.

B1: OPTN S2D (S177D, S473D) (natural protein, UniProt Q96CV9 1-577, looked up)
chain: MSHQPLSCLTEKEDSPSESTGNGPPHLAHPNLDTFTPEELLQQMKELLTENHQLKEAMKLNNQAMKGRFEELSAWTEKQKEERQFFEIQSKEAKERLMALSHENEKLKEELGKLKGKSERSSEDPTDDSRLPRAEAEQEKDQLRTQVVRLQAEKADLLGIVSELQLKLNSSGSSEDDFVEIRMAEGEAEGSVKEIKHSPGPTRTVSTGTALSKYRSRSADGAKNYFEHEELTVSQLLLCLREGNQKVERLEVALKEAKERVSDFEKKTSNRSEIETQTEGSTEKENDEEKGPETVGSEVEALNLQVTSLFKELQEAHTKLSEAELMKKRLQEKCQALERKNSAIPSELNEKQELVYTNKKLELQVESMLSEIKMEQAKTEDEKSKLTVLQMTHNKLLQEHNNALKTIEELTRKESEKVDRAVLKELSEKLELAEKALASKQLQMDEMKQTIAKQEEDLETMTILRAQMEVYCDDFHAERAAREKIHEEKEQLALQLAVLLKENDAFEDGGRQSLMEMQSRHGARTSDSDQQAYLVQRGAEDRDWRQQRNIPIHSCPKCGEVLPDIDTLQIHVMDCII
notes: optineurin (OPTN), TBK1 phospho-mimetic form; pGST2-GST-TEV-OPTN(S177D S473D), derived from vectors of Chang et al., 2021; also called OPTN S177D S473D; phosphomimetic OPTN S2D; source: E. coli Rosetta pLySS, purified (Glutathione Sepharose, TEV cleavage, Superdex 200); not shown: GST, N-terminal, cleaved
B1: the binding result is given as “binds”.
